Changes are numbered by the printed parent chain. One block for each binder: values may come before it.
What was measured:
Pep2 = biological target: T1, Pep2 (human, N-terminal biotin); assay: ELISA, biotinylated peptide on streptavidin plate, antibody 10 µg/mL, well 2
T1 construct: Synthetic 20-mer of human IL-33
T1 peptide: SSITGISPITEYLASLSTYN
Description: (§1) To determine the binding activity of antibody to each polypeptide fragment, the ELISA plate was pre-coated by biotin-avidin (SA) which was diluted in coating solution (50 mM carbonate coating buffer, pH 9.6) to 2 μg/ml at 4° C. overnight. The plate was washed with PBST for 3 times, and then blocked with 2% BSA prepared in PBS at room temperature for 2 h with 200 μL/well. The plate was washed once with PBST, and 864F3 and 874F7 with final concentrations of 10 μg/mL were added at 100 μL/well, respectively, and the plate was incubated at room temperature for 1 h. The plate was washed with PBST for 3 times, and the goat anti-mouse IgG labeled by HRP was added and placed at 37° C. for 30 min. After washing the plate with PBST for 3 times, the plate was patted on the absorbent paper to remove residual droplets as far as possible. 100 μl TMB developing solution was added to each well, and the plate was placed at room temperature (20±5° C.) for 5 minutes away from light; 50 μl 2M H₂SO₄ terminating solution was added to each well to terminate the substrate reaction. OD values were read at 450 nm on the microplate reader to analyze the binding ability of the antibody to each polypeptide fragment. The experimental results are shown in […]

Pep9 = biological target: T2, Pep9 (human, N-terminal biotin); assay: as above
T2 construct: Synthetic 20-mer of human IL-33
T2 peptide: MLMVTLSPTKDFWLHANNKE
Description: as §1

Cynomolgus IL-33-his = biological target: T3, Cynomolgus IL-33-his (cynomolgus, UniProt A0A2K5W3I1 112-269, biotinylated in the ELISA of Example 6); assay: indirect ELISA, biotinylated cynomolgus IL-33-his on streptavidin plate
T3 construct: Bought protein; also called cynomolgus IL-33 protein; Cynomolgus monkeys IL-33
T3 sequence: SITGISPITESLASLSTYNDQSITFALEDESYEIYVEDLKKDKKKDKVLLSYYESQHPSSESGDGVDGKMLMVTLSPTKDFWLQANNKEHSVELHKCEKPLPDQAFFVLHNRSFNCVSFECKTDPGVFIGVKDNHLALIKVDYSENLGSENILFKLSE
Description: The binding ability of murine antibody to cynomolgus IL-33 was determined by indirect enzyme-linked immunosorbent assay (ELISA). The specific methods were as follows: The plate was pre-coated by biotin-avidin (SA) which was diluted in coating solution (50 mM carbonate coating buffer, pH 9.6) to 2 μg/ml at 4° C. overnight. The plate was blocked with 5% skim milk powder at 37° C. for 2 hours, and stored at −80° C. for later use. Biotinylated recombinant cynomolgus IL-33-his protein was diluted to 1 μg/ml in coating solution (50 mM carbonate coating buffer, pH 9.6) and was added at 100 μl/well to the pre-coated SA plate for 0.5 h at 37° C. After washing the plate with PBST for 3 times, the antibodies to be tested were diluted by gradient with 1% BSA buffer and added into the blocked plate with 100 μl/well, and incubated at 37° C. for 1 hour. The plate was washed with PBST for 3 times, and the HRP-labeled goat anti-mouse IgG was added and placed at 37° C. for 30 min. After washing the plate with PBST for 3 times, the plate was patted on the absorbent paper to remove residual droplets as far as possible. […] OD values were read at 450 nm on the microplate reader to analyze the binding ability of the antibody to the target antigen cynomolgus IL-33-his.

[1] = biological target: T4, IL-33 mutant protein E62A (human, UniProt O95760 112-270); assay: ELISA as Example 9; row E62A against WT-3
T4 construct: Prokaryotic expression
T4 chain: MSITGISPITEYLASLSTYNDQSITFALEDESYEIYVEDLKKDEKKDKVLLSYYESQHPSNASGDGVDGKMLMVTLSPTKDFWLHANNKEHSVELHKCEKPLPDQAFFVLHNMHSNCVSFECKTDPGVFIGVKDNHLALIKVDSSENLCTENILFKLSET
Description: (§2) SA protein was diluted to 2 μg/mL to coat ELISA plate at 100 μL/well overnight at 4° C. The plate was washed with PBST (PBS containing 0.05% Tween20) for 3 times, and blocked with 2% BSA prepared in PBS at 200 μL/well, at room temperature for 2 h. After the plate was washed twice with PBST, IL-33-his-biotin protein was diluted to 1 μg/mL with 1% BSA prepared in PBST, and was added to ELISA plate at 100 μL/well. The plate was incubated at room temperature for 1 h, and each monoclonal antibody was diluted with 1% BSA prepared in PBST in a 3-fold gradient. The highest concentration of antibody was 10 μg/mL, and the antibody was diluted for 12 gradients. Each diluted monoclonal antibody was added to ELISA wells with 100 μL/well, and the plate was incubated at room temperature for 1 h. Each sample was added to duplicate wells in parallel. The plate was washed with PBST for 3 times, and HRP-anti human IgG Fc secondary antibody prepared with PBST was diluted at an appropriate ratio, and was added to ELISA wells at 100 μL/well. […] Each reaction solution was shaken uniformly and OD450 nm was read on a microplate reader. The data was analyzed and EC₅₀ was calculated.
(§3) Subsequently, according to the experimental method of Example 9, the affinity of the above mutant proteins to 874F7-Hu1 was determined, and IL-33 proteins (WT-1, WT-2, WT-3, and WT-4) without any mutation were set as controls.

[2] = biological target: T5, IL-33 protein without any mutation (WT) (human, UniProt O95760 112-270); assay: ELISA as Example 9; row WT-3
T5 construct: Control of the alanine scan (four runs WT-1 to WT-4); also called WT-1; WT-2
T5 sequence: T4 chain with A62E
Description: as §2, §3

[3] = biological target: T6, IL-33 mutant protein K48A (human, UniProt O95760 112-270); assay: ELISA as Example 9; row K48A against WT-2
T6 construct: Prokaryotic expression
T6 chain: T4 chain with K48A, A62E
Description: as §2, §3

OD450 (Pep2): 0.05 OD450 | OD450 (Pep9): 0.061 OD450 | EC50 (Cynomolgus IL-33-his): 0.03 nM
B1: 874F7 (antibody, V domains shown)
VH: QVQLKESGPGLVAPSHSLSITCNVSGFSLSKYGVHWIRQIPGRGLDWLGVLRAGGSTGYNSALMSRLSISKDSSKSQVFLKMNDLRTDDTAVYFCVRDHYYYSSYGGFVYWGQGTLVTVSA
VL: DIQMTQSPASQSASLGESVTITCLASQTIGAWLAWYRQQPGKSPQLLIYAATRLADGVPSRFSGSGSGTEFSFKINNLQAEDFVSYYCQQLDSSPYTFGGGTRLEM
notes: Murine hybridoma antibody purified on Protein G; also called murine antibody 874F7

Affinity decline ratio [1]: 0.8 fold | EC50 [2]: 0.18 nM | Affinity decline ratio [3]: 3.7 fold
B2: 874F7-Hu1 (antibody, human IgG4 S228P, kappa)
heavy: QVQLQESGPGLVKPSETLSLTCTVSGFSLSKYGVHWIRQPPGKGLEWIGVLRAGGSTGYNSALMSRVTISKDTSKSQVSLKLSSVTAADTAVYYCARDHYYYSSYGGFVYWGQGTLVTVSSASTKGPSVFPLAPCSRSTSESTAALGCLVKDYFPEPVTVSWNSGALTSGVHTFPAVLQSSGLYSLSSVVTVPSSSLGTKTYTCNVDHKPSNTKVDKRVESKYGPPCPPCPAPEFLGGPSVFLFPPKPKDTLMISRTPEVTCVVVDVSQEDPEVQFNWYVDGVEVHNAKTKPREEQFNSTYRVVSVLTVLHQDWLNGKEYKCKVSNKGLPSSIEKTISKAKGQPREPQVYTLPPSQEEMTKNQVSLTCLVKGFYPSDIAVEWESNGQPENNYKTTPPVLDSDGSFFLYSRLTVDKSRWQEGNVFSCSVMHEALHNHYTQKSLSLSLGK
light: DIQMTQSPSSVSASVGDRVTITCLASQTIGAWLAWYQQKPGKSPKLLIYAATRLADGVPSRFSGSGSGTDFTLTISSLQPEDFATYYCQQLDSSPYTFGQGTKVEIKRTVAAPSVFIFPPSDEQLKSGTASVVCLLNNFYPREAKVQWKVDNALQSGNSQESVTEQDSKDSTYSLSSTLTLSKADYEKHKVYACEVTHQGLSSPVTKSFNRGEC
notes: also called 874F7-Hul; humanized antibody 874F7-Hu1

— patent US20230399394A1 (SUNSHINE GUOJIAN PHARMACEUTICAL SHANGHAI, published 2023)
